Literature values as cited in article PMC4434180.

Target: PriL (p58) NTD (Homo sapiens) (UniProt P49643)
UniProt P49643, sequence (P49643 1-253): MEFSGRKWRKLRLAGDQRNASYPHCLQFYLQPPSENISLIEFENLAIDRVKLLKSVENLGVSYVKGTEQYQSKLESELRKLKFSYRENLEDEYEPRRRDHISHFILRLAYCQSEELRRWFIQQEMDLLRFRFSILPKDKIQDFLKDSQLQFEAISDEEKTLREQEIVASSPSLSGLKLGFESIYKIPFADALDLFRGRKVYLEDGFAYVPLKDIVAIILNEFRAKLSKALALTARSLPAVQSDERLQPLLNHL

Kd: 0.46 nM
Substance: PriS (p49) (from UniProt P49642)
